Where a chain is given by its changes, count along the chain named. Blank lines part the entries; values can stand above or below the binder they belong to.
Assays:
Assay in all cases: scFv ELISA
[1] = molecular target: T1, Peptide 8: Biotin-AEAAAKEAAAKEAAAKEAAAKAAA-Tyr-acid (N-terminal biotin; C-terminal acid)
T1 construct: control peptide without PC
T1 peptide: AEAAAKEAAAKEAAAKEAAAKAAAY
Experimental: (§1) For ELISA analysis of scFv binding, 96-well polystyrene plates were coated with Peptide 1, 4, 5, 8 or 100 μL BSA (10 μg/mL) in PBS at 4° C. overnight. Plates were washed three times with PBS-Tween and blocked with 100 μL 1% BSA-TBS for 1 hour at room temperature. 96-well streptavidin coated plates were coated with 100 μL biotinylated PC-peptides (1 μg/mL) in PBS for 1 hour at room temperature.
(§2) All plates were washed three times with PBS-Tween before 40 μL aliquots of PPE were added to assay plates along with 50 μL 10% BSA, and plates were incubated for 1 hour at room temperature. After washing, […] HRP conjugated anti-V5 in 5% BSA was added, and plates were incubated at room temperature for 30 mins. Plates were washed and 100 μL TMB substrate was added. Color was left to develop at room temperature before the reaction was stopped with 100 μL 1N HCl. The amount of scFv bound to each well was quantitated from absorbance measurement at 450 nm (OD450).

[2] = molecular target: T2, Peptide 4: Biotin-AGGGGSGGGGSGGGGSAAA-Tyr-acid (N-terminal biotin; C-terminal acid)
T2 construct: control peptide without PC
T2 peptide: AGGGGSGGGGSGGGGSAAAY
Experimental: as §1, §2

[3] = molecular target: BSA (UniProt P02769)
[4] = molecular target: Peptide 5: Biotin-…-[Tyr(PC)]-acid
[5] = molecular target: Peptide 1: Biotin-…-[Tyr(PC)]-acid

Sequence of BSA (P02769 25-607 limits assumed): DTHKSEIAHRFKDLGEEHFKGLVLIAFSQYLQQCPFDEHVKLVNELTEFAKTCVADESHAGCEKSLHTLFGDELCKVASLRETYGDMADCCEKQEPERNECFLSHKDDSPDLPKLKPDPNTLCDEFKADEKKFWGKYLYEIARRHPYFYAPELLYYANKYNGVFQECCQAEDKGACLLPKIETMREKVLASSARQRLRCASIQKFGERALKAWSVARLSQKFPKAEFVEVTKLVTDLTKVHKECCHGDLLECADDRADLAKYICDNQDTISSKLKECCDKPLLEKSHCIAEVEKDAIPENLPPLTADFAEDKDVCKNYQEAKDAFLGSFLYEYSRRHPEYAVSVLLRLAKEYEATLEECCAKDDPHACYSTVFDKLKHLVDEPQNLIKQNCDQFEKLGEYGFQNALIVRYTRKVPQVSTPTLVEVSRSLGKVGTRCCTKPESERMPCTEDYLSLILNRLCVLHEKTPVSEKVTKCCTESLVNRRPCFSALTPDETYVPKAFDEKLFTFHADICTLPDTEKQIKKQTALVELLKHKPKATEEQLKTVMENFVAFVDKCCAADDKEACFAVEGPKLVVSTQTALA

B1: PcOxP_DB01_B07 (scFv, V domains shown)
VH: EVQLLESGGGLVQPGGSLRLSCAASGFTFSDYYMEWVRQAPGKGLEWVAASRNKANDYTTEYADSVKGRFTISRDNSKNTLYLQMNSLRAEDTAVYYCARDYYGSSYWYFDVWGQGTLVTVSS
VL: DIQMTQSPSSLSASVGDRVTITCTASESLYSSKHKVHYLAWYQQKPGKAPKLLIYGASNRYIGVPSRFSGSGSGTDFTLTISSLQPEDFATYYCAQFYSYPLTFGGGTKVEIK
notes: scFv in periplasmic extract
OD450 [1]: 0.05 OD450
OD450 [2]: 0.06 OD450
OD450 [3]: 0.11 OD450
OD450 [4]: 1.36 OD450
OD450 [5]: 1.07 OD450

B3: PcOxP_DB01_C03 (scFv, V domains shown)
VH: B1 VH with Y32Q
VL: B1 VL with S99Q
notes: scFv in periplasmic extract
OD450 [1]: 0.05 OD450
OD450 [2]: 0.06 OD450
OD450 [3]: 0.1 OD450
OD450 [4]: 1.37 OD450
OD450 [5]: 0.98 OD450

B5: PcOxP_DB01_B08 (scFv, V domains shown)
VH: B1 VH with Y32S, E61S
VL: B1 VL
notes: scFv in periplasmic extract
OD450 [1]: 0.05 OD450
OD450 [2]: 0.06 OD450
OD450 [3]: 0.1 OD450
OD450 [4]: 0.89 OD450
OD450 [5]: 0.41 OD450

B7: PcOxP_DB01_B04 (scFv, V domains shown)
VH: B1 VH with Y32G
VL: B1 VL
notes: scFv in periplasmic extract
OD450 [1]: 0.05 OD450
OD450 [2]: 0.06 OD450
OD450 [3]: 0.08 OD450
OD450 [4]: 1.02 OD450
OD450 [5]: 0.57 OD450

B8: PcOxP_DB01_A06 (scFv, V domains shown)
VH: B1 VH
VL: B1 VL with Q96E
notes: scFv in periplasmic extract
OD450 [1]: 0.06 OD450
OD450 [2]: 0.06 OD450
OD450 [3]: 0.1 OD450
OD450 [4]: 1.18 OD450
OD450 [5]: 0.74 OD450

B10: PcOxP_DB01_C01 (scFv, V domains shown)
VH: B1 VH with Y32F
VL: B1 VL with T24V
notes: scFv in periplasmic extract
OD450 [1]: 0.05 OD450
OD450 [2]: 0.06 OD450
OD450 [3]: 0.11 OD450
OD450 [4]: 1.13 OD450
OD450 [5]: 0.71 OD450

B12: PcOxP_DB01_A12 (scFv, V domains shown)
VH: B1 VH with T28G, Y32F, A55W, F110Y
VL: B1 VL with Y61E, A95Q
notes: scFv in periplasmic extract
OD450 [1]: 0.05 OD450
OD450 [2]: 0.06 OD450
OD450 [3]: 0.09 OD450
OD450 [4]: 1.04 OD450
OD450 [5]: 0.29 OD450

B13: PcOxP_DB01_C06 (scFv, V domains shown)
VH: B1 VH with T28E, Y32N
VL: B1 VL with Y61F, S99Y
notes: scFv in periplasmic extract
OD450 [1]: 0.05 OD450
OD450 [2]: 0.05 OD450
OD450 [3]: 0.08 OD450
OD450 [4]: 1.31 OD450
OD450 [5]: 1.18 OD450

B16: PcOxP_DB01_C04 (scFv, V domains shown)
VH: B1 VH with T28Q, Y32F
VL: B1 VL with S99Y
notes: scFv in periplasmic extract
OD450 [1]: 0.05 OD450
OD450 [2]: 0.05 OD450
OD450 [3]: 0.08 OD450
OD450 [4]: 1.42 OD450
OD450 [5]: 1.38 OD450

B18: PcOxP_DB01_C05 (scFv, V domains shown)
VH: B1 VH with Y32G
VL: B1 VL with A57S, S99A
notes: scFv in periplasmic extract
OD450 [1]: 0.06 OD450
OD450 [2]: 0.06 OD450
OD450 [3]: 0.11 OD450
OD450 [4]: 1.11 OD450
OD450 [5]: 0.79 OD450

B20: PcOxP_DB01_C08 (scFv, V domains shown)
VH: B1 VH with Y32G, G104A
VL: B1 VL with T24R, L29I, Y30S, H34N, I62Y
notes: scFv in periplasmic extract
OD450 [1]: 0.05 OD450
OD450 [2]: 0.06 OD450
OD450 [3]: 0.1 OD450
OD450 [4]: 0.79 OD450
OD450 [5]: 0.38 OD450

B21: PcOxP_DB01_C12 (scFv, V domains shown)
VH: B1 VH with Y32F, Y62L
VL: B1 VL with S58A, S99V
notes: scFv in periplasmic extract
OD450 [1]: 0.05 OD450
OD450 [2]: 0.05 OD450
OD450 [3]: 0.08 OD450
OD450 [4]: 1.18 OD450
OD450 [5]: 0.88 OD450

B22: PcOxP_DB01_B05 (scFv, V domains shown)
VH: B1 VH with F29A, Y32F, A55W
VL: B1 VL with N59S, R60L, Y61Q
notes: scFv in periplasmic extract
OD450 [1]: 0.05 OD450
OD450 [2]: 0.05 OD450
OD450 [3]: 0.1 OD450
OD450 [4]: 0.74 OD450
OD450 [5]: 0.23 OD450

B25: PcOxP_DB01_B09 (scFv, V domains shown)
VH: B1 VH
VL: B1 VL with I62T, S99H
notes: scFv in periplasmic extract
OD450 [1]: 0.05 OD450
OD450 [2]: 0.05 OD450
OD450 [3]: 0.1 OD450
OD450 [4]: 1.42 OD450
OD450 [5]: 1 OD450

B26: PcOxP_DB01_B01 (scFv, V domains shown)
VH: B1 VH with Y32Q, M34I, Y103L
VL: B1 VL with N59H, S99A
notes: scFv in periplasmic extract
OD450 [1]: 0.05 OD450
OD450 [2]: 0.07 OD450
OD450 [3]: 0.1 OD450
OD450 [4]: 0.9 OD450
OD450 [5]: 0.87 OD450

B29: PcOxP_DB01_B11 (scFv, V domains shown)
VH: B1 VH with S30E, Y32F, Y103F
VL: B1 VL with I62H
notes: scFv in periplasmic extract
OD450 [1]: 0.04 OD450
OD450 [2]: 0.05 OD450
OD450 [3]: 0.09 OD450
OD450 [4]: 1.32 OD450
OD450 [5]: 1.11 OD450

Other lines, results leading:

OD450 [1]: 0.05 OD450
OD450 [2]: 0.05 OD450
OD450 [3]: 0.09 OD450
OD450 [4]: 1.27 OD450
OD450 [5]: 0.56 OD450
B2: PcOxP_DB01_D02 (scFv, V domains shown)
VH: B1 VH with T28E, Y32F, N53G, A55G, D57S
VL: B1 VL with A95G
notes: scFv in periplasmic extract

OD450 [1]: 0.05 OD450
OD450 [2]: 0.06 OD450
OD450 [3]: 0.09 OD450
OD450 [4]: 1.33 OD450
OD450 [5]: 0.58 OD450
B4: PcOxP_DB01_G01 (scFv, V domains shown)
VH: B1 VH with F29G, Y32F, A55G, D57S
VL: B1 VL with S31G, I62S
notes: scFv in periplasmic extract

OD450 [1]: 0.04 OD450
OD450 [2]: 0.05 OD450
OD450 [3]: 0.07 OD450
OD450 [4]: 1.12 OD450
OD450 [5]: 0.55 OD450
B6: PcOxP_DB01_E04 (scFv, V domains shown)
VH: B1 VH with Y32A, V112T
VL: B1 VL with I62D
notes: scFv in periplasmic extract

OD450 [1]: 0.06 OD450
OD450 [2]: 0.05 OD450
OD450 [3]: 0.09 OD450
OD450 [4]: 0.73 OD450
OD450 [5]: 0.62 OD450
B9: PcOxP_DB01_E11 (scFv, V domains shown)
VH: B1 VH with Y32F, T59V
VL: B1 VL with E27F, I62P, S99Y
notes: scFv in periplasmic extract

OD450 [1]: 0.05 OD450
OD450 [2]: 0.05 OD450
OD450 [3]: 0.07 OD450
OD450 [4]: 0.66 OD450
OD450 [5]: 0.27 OD450
B11: PcOxP_DB01_D09 (scFv, V domains shown)
VH: B1 VH with F29E, Y32F
VL: B1 VL with S32A, A57S, S99D
notes: scFv in periplasmic extract

OD450 [1]: 0.05 OD450
OD450 [2]: 0.05 OD450
OD450 [3]: 0.09 OD450
OD450 [4]: 0.57 OD450
OD450 [5]: 0.36 OD450
B14: PcOxP_DB01_F04 (scFv, V domains shown)
VH: B1 VH with D31S, A55Y
VL: B1 VL with S58V, S99R
notes: scFv in periplasmic extract

OD450 [1]: 0.06 OD450
OD450 [2]: 0.06 OD450
OD450 [3]: 0.09 OD450
OD450 [4]: 1.32 OD450
OD450 [5]: 0.99 OD450
B15: PcOxP_DB01_G11 (scFv, V domains shown)
VH: B1 VH with Y32G, A55N, Y103F
VL: B1 VL
notes: scFv in periplasmic extract

OD450 [1]: 0.05 OD450
OD450 [2]: 0.06 OD450
OD450 [3]: 0.1 OD450
OD450 [4]: 1.56 OD450
OD450 [5]: 0.87 OD450
B17: PcOxP_DB01_D05 (scFv, V domains shown)
VH: B1 VH with Y32G, S106P
VL: B1 VL with I62V
notes: scFv in periplasmic extract

OD450 [1]: 0.06 OD450
OD450 [2]: 0.06 OD450
OD450 [3]: 0.11 OD450
OD450 [4]: 1.39 OD450
OD450 [5]: 0.95 OD450
B19: PcOxP_DB01_E05 (scFv, V domains shown)
VH: B1 VH
VL: B1 VL with H37N, S99Q
notes: scFv in periplasmic extract

OD450 [1]: 0.05 OD450
OD450 [2]: 0.05 OD450
OD450 [3]: 0.08 OD450
OD450 [4]: 1.08 OD450
OD450 [5]: 0.58 OD450
B23: PcOxP_DB01_D08 (scFv, V domains shown)
VH: B1 VH with Y32A, V112S
VL: B1 VL
notes: scFv in periplasmic extract

OD450 [1]: 0.05 OD450
OD450 [2]: 0.05 OD450
OD450 [3]: 0.09 OD450
OD450 [4]: 1.05 OD450
OD450 [5]: 0.68 OD450
B24: PcOxP_DB01_E06 (scFv, V domains shown)
VH: B1 VH with Y32Q, V112L
VL: B1 VL with L39V, S99Y
notes: scFv in periplasmic extract

OD450 [1]: 0.05 OD450
OD450 [2]: 0.05 OD450
OD450 [3]: 0.09 OD450
OD450 [4]: 0.98 OD450
OD450 [5]: 0.68 OD450
B27: PcOxP_DB01_F10 (scFv, V domains shown)
VH: B1 VH with D31S
VL: B1 VL with R60G, S99T
notes: scFv in periplasmic extract

OD450 [1]: 0.05 OD450
OD450 [2]: 0.06 OD450
OD450 [3]: 0.11 OD450
OD450 [4]: 1.4 OD450
OD450 [5]: 0.92 OD450
B28: PcOxP_DB01_G09 (scFv, V domains shown)
VH: B1 VH with D57T
VL: B1 VL with R60L, I62S
notes: scFv in periplasmic extract

Reference: US20250320312A1 (OXITOPE PHARMA B V, published 2025)
